“Also recorded” adds a separate entry of the source.
What was measured:
Bcl-2 promoter [1] = test: Bcl-2-promoter-luciferase reporter assay in HEK 293 cells; format: cell-based, human; details: luciferase after 24 hours
Protocol: Bit1 activity was analyzed in the human embryonic kidney cell line, HEK 293. […] Furthermore, HEK 293 cells were transfected with a Bcl-2-promoter-luciferase reporter construct together with increasing amounts of Bit1 expression construct; Bcl-2 transcription was measured by quantifying luciferase […] after 24 hours in culture. In agreement with the CHO cell results, transcription from the Bcl-2 promoter was suppressed in the Bit1-transfected HEK 293 cells (see FIG. 1B). […] In particular, the percentages of annexin V-positive cells (lower right quadrants) are about 1.4% in the control and about 4.7% in the Bit1-transfected cells.

HOP92 cells = test: Percentage of GFP-positive detached cells after transfection; format: cell-based; details: 72 hours after transfection; cells express only negligible amounts of AES
Protocol: To determine if Bit1 and AES are both required for apoptosis induction, HEK 293T, HOP92, and CHO cells were transfected with a GFP (vector), GFP-Bit1, or GFP-AES fusion protein constructs, as indicated in FIG. 3E. The cells were examined 48 hours (HEK 293T and CHO) or 72 hours (HOP92) after transfection, and the percentage of GFP-positive detached cells was measured.
Because the HEK 293T cells lack detectable Bit1 activity, it seemed possible that AES required endogenous Bit1 for the pro-apoptotic activity. An NIH data bank identified HOP92 as a cell line that expresses only negligible amounts of AES. […] CHO cells (FIG. 3E) and HeLa cells, which express both Bit1 and AES, underwent apoptosis upon transfection with either protein.

Thymosin β-4 = test: Northern blot of ecdysone-induced Bit1 or AES cell lines; format: cell-based, human; details: ecdysone-inducible ECR-293 cell line expressing Bit1 or AES
Protocol: (§1) To determine whether the Bit1/AES pathway can regulate the transcription of genes other than Bcl-2, two stable cell lines were established expressing either-Bit1 or AES under control of an ecdysone-inducible promoter. To detect genes regulated by Bit1 or AES, probes were prepared from the ecdysone-induced cell lines and used to screen microarrays representing 19,000 human cDNAs. […] Down-regulation of HSP-70 and thymosin 4 in cells induced to express Bit1 or AES was confirmed by Northern blot analysis (see FIG. 7).
(§2) Northern blot analysis was performed as follows. Total RNA (10 μg) was electrophoresed on a 1% agarose-formaldehyde gel and transferred to nitrocellulose filters. The filters were hybridized using the same RNA probes as in the microarray experiments in Rapid-hyb buffer and washed according to the manufacturer's instructions (Amersham-Pharmacia).

[2] = system: Heat Shock 70 kD protein 1A; test: as above; format: cell-based, human; details: ecdysone-inducible ECR-293 cell line expressing Bit1 or AES
Protocol: as §1, §2

HEK 293T cells = test: Anoikis of attached or detached (poly-HEMA) transfected cells; format: cell-based, human
Protocol: The role of Bit1 in the tendency of detached cells to undergo apoptosis (anoikis in the strictest sense) was then examined. HEK 293T cells were transfected with C-terminally myc-tagged (mitochondrial) Bit1 or with empty vector, and the cells were cultured either on tissue-culture plates (attached) or on poly-HEMA (detached) for 48 hours. The number of attached cells (10^6) was the same whether the cells were transfected with Bit1 or vector (assigned as 100% in FIG. 8H).
As is shown in FIG. 8H, Bit1 and control transfected cells had the same level of spontaneous apoptosis when grown attached to a culture dish. In striking contrast, detachment induced a higher level of cell death in the Bit1-transfected cells than in the control cells. Given that the transfection efficiency was about 50-70% in the 293T cells, the nearly 4-fold higher apoptosis level of the Bit1-transfected cells translates into more than 5-fold difference in anoikis sensitivity.

19,000 human cDNAs = test: cDNA microarray analysis of ecdysone-induced Bit1 or AES cell lines; format: cell-based
Protocol: as §1
cDNA microarray analysis was performed as follows. Total RNA was purified 48 hours after treatment with 10 μM ponasterone A (Invitrogen; San Diego, Calif.) from the ecdysone inducible cell line ECR-293-Bit1 or ECR-293-AES according to the manufacturer's instructions (Qiagen; Valencia, Calif.). cDNA probes were generated and hybridized with a microarray containing 19,000 human cDNAs from Microarray Centre at University Health Network, Ontario Cancer institute. cDNAs were labeled with fluorescent dyes (Cy3 or Cy5) using reverse transcription. Arrays were processed and hybridized essentially as described in Iyer et al., Science 283:83-87 (1999). After hybridization, arrays were scanned to measure fluorescence using a ScanArray 4000 scanner (Perkin Elmer; Meriden, Conn.). Raw data files generated by scanner software were imported into ImaGene and Gene Spring for analysis. Experiments were performed in duplicate using color reversals.

Bcl-2 promoter [3] = test: Bcl-2 promoter reporter assay in CHO cells; format: cell-based, Chinese hamster
Source text: The entire CGI-147 open reading frame encodes a 27-kDa protein with no sequence similarity to other proteins. […] To denote this inhibitory transcriptional activity, the Clone-3 gene was denoted Bit1 for Bcl-2 inhibitor of transcription.

AES = molecular target: T1, AES (Homo sapiens, UniProt Q08117); test: Yeast two-hybrid analysis; format: binding; details: yeast co-transformed with vectors encoding both Bit1 and AES
T1 construct: expressed in transfected cells; host or cells: yeast strain AH109
T1 sequence (Q08117 1-197): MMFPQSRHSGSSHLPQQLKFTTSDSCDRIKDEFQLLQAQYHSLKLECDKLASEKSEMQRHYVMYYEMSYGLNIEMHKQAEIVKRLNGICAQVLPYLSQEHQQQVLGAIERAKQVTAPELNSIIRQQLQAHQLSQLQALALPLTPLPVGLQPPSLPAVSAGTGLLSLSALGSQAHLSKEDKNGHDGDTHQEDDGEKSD
Protocol: To explore the mechanism whereby Bit1 induces cell death, a yeast-two-hybrid screening assay was performed to search for binding partners for the Bit1 protein. Full-length Bit1 cDNA was fused to the Gal4 DNA-binding domain in the pGBKT7 vector and used as bait; a human fetal brain cDNA expression library fused to the Gal4 transcriptional activation domain was screened in cells expressing the Bit1/GAL4 DNA-binding domain fusion. Approximately one million transformants from the cDNA library were screened, and about 100 clones positive for both nutritional selection and α-galactosidase activity were obtained.
The ability of AES to interact with Bit1 was confirmed in mammalian cells.
Yeast two-hybrid screening was performed as follows. Full length CGI-147 was cloned in-frame with the Gal4 DNA binding domain in vector pGBKT7 and used to screen a yeast two-hybrid library derived from human fetal brain (Clontech). Yeast strain AH109 was co-transformed with PGBKT7-Bit1, pACT-2-AES or both, and growth selected in SD medium -ADE/-His/-Leu/-Trp and assayed for α-galactosidase activity according to the manufacturer's instructions (Clontech).

B1: Bit1: human Bit1 polypeptide of 179 residues (SEQ ID NO:2), pro-apoptotic, expressed in cells by transfection (protein, listed as Homo sapiens)
chain: MPSKSLVMEYLAHPSTLGLAVGVACGMCLGWSLRVCFGMLPKSKTSKTHTDTESEASILGDSGEYKMILVVRNDLKMGKGKVAAQCSHAAVSAYKQIQRRNPEMLKQWEYCGQPKVVVKAPDEETLIALLAHAKMLGLTVSLIQDAGRTQIAPGSQTVLGIGPGPADLIDKVTGHLKLY
- transcription from the Bcl-2 promoter (Bcl-2 promoter [1]): suppressed
- apoptosis induction in HOP92 cells (HOP92 cells): resistant
- Northern result, suppression of Thymosin β-4 (Thymosin β-4): 5 fold
- Northern result, suppression of Heat Shock 70 kD protein 1A [2]: 3 fold
- reduction of the number of surviving cells in detached cultures (HEK 293T cells; C-terminally myc-tagged Bit1, poly-HEMA, 48 hours, 8% in the vector transfection): 30%
- apoptosis level of Bit1-transfected cells versus control cells, detached (HEK 293T cells; HEK 293T cells, detached): ~4 fold
- difference in anoikis sensitivity (HEK 293T cells; corrected for transfection efficiency of about 50-70%): more than 5 fold
- Bcl-2 expression (19,000 human cDNAs; Bit1 and AES stable cell lines): not measurably altered
- Microarray result: gene induced (19,000 human cDNAs; at least a two-fold induction, value is the gene): Atrophin-1 interacting protein 1; also recorded: Mannosyl (β-1,4)-glycoprotein; also recorded: insulin-like growth factor-binding; also recorded: Tissue factor pathway inhibitor 2
- Microarray result: gene suppressed (19,000 human cDNAs; at least a two-fold suppression, value is the gene): Heat Shock 70 kD protein 1A; also recorded: Thymosin β-4; also recorded: Actin-binding LIM protein; also recorded: sialytransferase
- Bcl-2 promoter activity (Bcl-2 promoter [3]; CHO cells, 1 μg Bcl-2-luciferase reporter construct, 24 hours in culture): down-regulate
- expression of the Bcl-2 promoter construct (Bcl-2 promoter [3]; transfected into CHO cells): down-regulated
- interaction with AES, growth of co-transformed yeast (AES): yeast grew
